1 protein from publication PMC3794784, “The Role of Initial Oligomers in Amyloid Fibril Formation by Human Stefin B” (International Journal of Molecular Sciences, 2013) can be followed below.

“And” between values parts separate entries of the source, which are not always exact repeats. Equal values may be shown once.

Series [1] deals with the molecule itself. The series can be described thus: native MS; ESI-Q-TOF MS of SEC fractions, stefin B in 0.02 M ammonium acetate, pH 7.5, injected directly, positive mode.
Series [2] deals with the molecule itself. In words: SEC; pH dependent transitions started from separated tetramers or higher-order oligomers; 34 μM protein, 2 h at 23 °C at pH 4.8, 5.8 or 7.0, 0.15 M NaCl, 9% (v/v) TFE.
Series [3] deals with the molecule itself. In words: SEC; oligomers isolated on Superdex 75 and then loaded on Superdex 200; room temperature; 0.01 M phosphate buffer, pH 7.0, 0.15 M NaCl (0.02 M ammonium acetate, pH 7.5 for ESI MS samples).
Series [4] concerns the molecule itself. The series can be described thus: SEC; time course started from SEC-purified monomers, dimers, tetramers or higher-order oligomers; pH 5.8 (0.1 M phosphate buffer, 0.15 M NaCl, 9% (v/v) TFE, 25 °C); an aliquot every hour on Superdex 75; tetramer to dimers.
Series [5] deals with the molecule itself. In words: SEC; concentration dependence (34, 75, 100 μM), started from the oligomer mixture; 0.02 M ammonium acetate, pH 7.5, 0.15 M NaCl, 9% (v/v) TFE, 50 °C, 300 rpm, 5 h; aliquots on Superdex 75; dimer to monomers, Kd = [M]^2/[D].
Series [6] deals with the molecule itself. In words: SEC; concentration dependence (4, 9, 34, 75, 100 μM), started from the oligomer mixture; 0.1 M phosphate buffer, pH 5.8, 0.15 M NaCl, 9% (v/v) TFE, 25 °C, 300 rpm, 5 h; aliquots on Superdex 75; tetramer to dimers, Kd = [D]^2/[T].

B1: Recombinant human stefin B (S3E31) (natural protein, UniProt P04080 1-98, looked up)
chain: MMSGAPSATQPATAETQHIADQVRSQLEEKENKKFPVFKAVSFKSQVVAGTNYFIKVHVGDEDFVHLRVFQSLPHENKPLTLSNYQTNKAKHDELTYF
notes: human stefin B (product of the cystatin B gene), a globular protein of 98 amino acid residues; variant S3E31: Ser at position 3 instead of Cys, Glu at position 31; also called cystatin B
For B1, the “stoichiometry N” value is 10 and 8 in series [1]; 6 and 3 in series [2]; 2 and 4 in series [3]. The koff in series [4] came out at 0.0001 s⁻¹. Besides, the values for the Ka in series [5] and in series [6] were 612000 M⁻¹ and 3080 M⁻¹, respectively. For the same protein, the Kd in series [5] amounted to 1.63 ± 0.31 µM; in series [6], 325 ± 180 µM.
